B1: TM-3 (antibody, V domains shown)
VH: QVTLKESGPGIVQPSQTLSLTCSFSGFSLNTLGRGVGWIRQPSGKGLEWLAKIWWNDDKFYYPALKSRLTISKDTSKNQIFLKIANVDTADSATYYCARIAGGTGAAYWGQGTTLTVSS
VL: DIVMTQAAFSNPVTLGTSASISCRSSKSLLHSNGITYLYWYLQKPGQSPQLLISQMSSLASGVPDRFSSGGSGTDFTLRISRVEAEDVGVFYCAQNLELPWTFGGGTKLELK
B2: TM-9 (antibody, V domains shown)
VH: EVQLVESGGDLVKPGGSLKLSCVASGFTFSGYGMSWVRQTPDKRLEWVATISSGSFYIYYPDSVKGRLTVSRDNAKNTLYLQMSSLKSEDTAIYYCARQNFYYGCEDYWGQGTTLTVSS
VL: DIVMTQAAFSNPVTLGTSASISCRSSKSLLHSNGITYLYWYLQKPGQSPQLLIYQMSNLASGVPNRFSSSGSGTDFTLRISRVEAEDVGVYYCAQNLELPWTFGGGTKLEIK
B3: TM-23 (antibody, V domains shown)
VH: QVQLQQSGAELIRPGTSVKVSCKASGYAFTNYLIEWVKKRPGQGLEWIGVINPGSGITNYNEKFKGKATLTADKSSSTAYMQLSSLTSEDSAVYFCARSDFITTVVADYWGQGTTVTVSS
VL: DIVVTQTPLSLPVSFGDQVSISCRSSQSLTNYYGNTYLSWYLHKPGQSPQLLIYGISNRFSGVPDRFSGSGSGTDFTLKISTIKPEDLGMYYCLQGTHQPRTFGGGTKLEIK
B4: TM-82 (antibody, V domains shown)
VH: QVQLQQSGAELVRPGTSVRVSCKASGYAFTNYLIEWIKQRPGQGLEWIGVINPGSGITDYSEKFKGKARLTADKSSSTAYMQLSSLTSDDSAVYFCTRSPFITTVVADYWGQGTTVTVSS
VL: DVVVTQTPLSLPVSFGDQVSISCRSSQSLANTYGNTYLSWYLHTPGQSPQLLIFGISNRFSGVPDRFSGSGSGTDFTLKISTIKPEDLGVYYCLQGTHPPRTFGGGTKLEMK
B5: TM-56 (antibody, V domains shown)
VH: QVHLQQSGAELAKPGASVKLSCKASGYTFTSYWMHWVKQRPGQGLEWIGYINPSSGYSKYNQRFKDKATLTADKSSTTAYMHLSSLTYADSAVYYCTREGGSISDWYFDVWGTGTTVTVSS
VL: DIEMTQAAPSVPVTPGESVSISCRSSKSLLQNNGNTYLYWFLQRPGQPPQLLIYRMSNLASGVPDRFSGSGSGTAFTLRISRVEAEDVGVYYCMQHLEYPYTFGGGTKLEIK
notes: mouse hybridoma mAb
B6: TM-12 (antibody, V domains shown)
VH: EVQLQQSGAELMRPGASVKLSCTASGFNIQDYYMYWVKQRPEQGLEWIGRIDPEDGDAEYAPKFQGKATMTADTSSNTAYLQLSSLTSEDTAVYYCSTRVIYDGYYRTMDCWGQGTSVTVSS
VL: DVLMTQIPLSLPVSLGDQASISCRSSQTIVHSNGNTYLEWYLKKPGQSPKLLIDKISNRFSGVPDRFSGSGSGTDFTLKISRVEAEDLGVYYCFQGSHVPYTFGGGTKLEIK
B7: TM-74 (antibody, V domains shown)
VH: EVQLQQSGPELVKPGASVKMSCKASGYTFTSYVIHWVKQKPGQGLEWIGFINPNNDGTKYNEKFRGKATLTSDKSSSTAYMELSSLTSEDSAVYYCARPYYDYEGYTMDYGGQGTSVTVSS
VL: DVVMTQSQKFMSTSVEDRVSITCKASQNVRSAVAWYQQKPGQSPKALIYLASNRHTGVPDRFAGSGSGTDFTLTISSVQSEDLADYFCLQHWKYPFTFGSGTKLEIK
B8: TM-41 (antibody, V domains shown)
VH: EVQLQQSGAELVKPGASIKLSCTASGFNIKDCYMHWVKQRTEQGLEWIGRIDPEDGTTNFAPKFQDRATITADTSSNTAYLQLTSLTSEDTAVYYCAREWDSGAYWGQGTLVTVSA
VL: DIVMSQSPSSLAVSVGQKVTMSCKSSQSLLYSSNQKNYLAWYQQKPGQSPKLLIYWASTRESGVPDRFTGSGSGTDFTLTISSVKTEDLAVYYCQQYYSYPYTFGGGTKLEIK
B9: TM-66 (antibody, V domains shown)
VH: EVMLVESGGALVEPGGSLKLSCAASGITFSNYAMSWIRQTPEKRLEWVATIGSVGSYTYYPDSVKGRFTISRDNARNTLYLQMSSLRSEDTAMYYCARQEGSSHFDYWGQGTTLTVSS
VL: DVVVTQTPPSLPVSFGDQVSISCRSSQSLVNSYGKTFLSWYLHKPGQSPQLLIYGISNRFSGVPDRFSGSGSGTVFTLKISTIKPEDLGMYYCLQGTHPPLTFGAGTKLEMK
notes: mouse hybridoma mAb
B10: TM-68 (antibody, V domains shown)
VH: EVQLQQSGAELVRPGASVKLSCTASGFNIKDDYMHWVRQRPEQGLEWIGWIDPENGDTEYASKFQGKATMTADTSSNTAYLHLSSLTSEDTAVYYCTKPQTATTCWGQGTLVTVSS
VL: DIVMTQAAFSNPVTLGTSVSISCSSSKSLLHSSGITYLYWYLQRPGQSPQLLIYRMSNLASGVPDRFSGSGSGTDFTLRISRVEAEDVGVYYCAQMLERPWTFGGGTKLEIK
B11: TM-50 (antibody, V domains shown)
VH: QVQLKESGPVLVAPSQSLSITCTVSGFSLTNYGVHWVRQPPGKGLEWLGVIWAGGNTNYNSALMSRLSISKDNSKSQVFLKMNSLQTDDTAMYYCAKEAKLLRSYAMDYWGQGTLVTVSA
VL: DVQMTQTTSSLSASLGDRVTISCRASQDINNYLYWYQQKPDGTVKLLIYYTSMLHSGVPSRFSGSGSGTDYSLTISNLEQEDIATYFCQQGSTLMYTFGGGTKLEIK
B12: TM-47 (antibody, V domains shown)
VH: QVQLKESGPVLVAPSQSLSITCTVSGFSLTNYGVHWVRQPPGKGLEWLGVIWAGGNTNYNSALMSRLSISKDNSKSQVFLKMNSLQTDDTAMYYCAKEAKLLRSYAMDYWGQGTSVTVSS
VL: DIVMTQSPSSLTVTAGEKVTMSCKSSQSLLNSGNQKNYLTWYQQKPGQPPKLLIYWASTRESGVPDRFTGSGSGTDFTLTISSVQAEDLAVYYCQNDYSYPLTFGAGTKLEIK
B13: TM-17 (antibody, V domains shown)
VH: QVQLQQSGAELIRPGTSVKVSCKASGYAFTDYLIEWVKQRPGQGLEWIGVINPGSGGTNYNEKFKGKAKLTADKSSSTAYMQLSSLTSEDSAVYFCVRSSYGVYVAYPMDYWGQGTSVTVSS
VL: DIQMTQSPSSLSASLGERVSLTCRASQDIGSNLNWLQQEPDGTIKRLIYATSSLDSGVPKRFSGSRSGSDYSLTISSLESEDFVDYYCLQYASSPRTFGGGTKLEIK
B14: TM-62 (antibody, V domains shown)
VH: QVQLQQPGTELVRPGSSVKLSCKAAGYTFTRYWMHWVKQRPIQGLEWIGNIDPSDSETQYNPKFKDKATLTVDRSSSTAYMHLSSLTSEDSAVYYCARLTTLDYAMDYWGQGTSVTVSS
VL: QIVLTQSPAIMSASPGEKVTISCSASSSVSYMYWYQQKAGSSPKPWIHRTSNLASGVPARFSGSGSGTSYSLTIRSMEAEDAATYYCQQYHSYPPTFGVGTKLELK
notes: mouse hybridoma mAb
B15: TM-49 (antibody, V domains shown)
VH: QVQLQQPGAELVRPGSSVKLSCKASGYTFTRFWMHWVKQRPIQGLEWIGNIDPSDSQTHYNQKFKDKATLTVDKSSSTAYMQLSSLTSEDSAVYYCARLITVDYAMDYWGQGTSVTVSS
VL: QIVLTQSPAIMSASPGEKVTISCSASSSVSYMYWYQQKPGSSPKPWIHRTSNLASGVPVRFSGSGSGTSYSLTISSMEAEDAATYYCQQYHSYPPTFGAGTKLELK
notes: mouse hybridoma mAb
B16: TM-27 (antibody, V domains shown)
VH: QVQLQQSGAELVRPGTSVKVSCKASGYALTNYLIEWVKQRPGQGLEWIGVINPGSGSTKYNEKFKGKATLTADKSSSTAYMQLSSLTSEDSAVYFCARIIYDHDWYFDVWGTGTTVTVSS
VL: QIVLTQSPAIMSASPGEKVTISCSASSSISYMYWYQQKPGSSPKPWIYRTSTLASGVPARFSGSGSGTSYSLTISSMEAEDAATYYCQQYHSYPRTFGGGTKLEIK
notes: mouse hybridoma mAb
B17: TM-31 (antibody, V domains shown)
VH: QVQLQQSGAELAKPGASVKVSCKASGYTFISYWMNWVKQRPGQGLEWIGYINPTSGYTRYNQKFKDKATLTADKSSSTAYMQLSSLTYEDSAVYYCARSPPTVVLIGYFDYWGQGTTLTVSS
VL: DIKMTQSPSSMYASLGERVTFTCKASQDINSYLSWFQQKPGKSPKTLIYRGNGLVDGVPSRFSGSGSGQDYSLTISSLEYEDMGIYYCLQYDEFPFTFASGTKLEIK
notes: mouse hybridoma mAb
B18: TM-34 (antibody, V domains shown)
VH: EVQLVESGGGLVKPGGSLKLSCAASGFSFSDSGMDWVRQAPEKGLEWFAYISSGSSTTHYADTVKGRFIISRDNAKNTLFLQMTSLRSEDTAMYYCVRRDGNYWYFDVWGTGTTVTVSS
VL: QIVLSQSPVILSASPGEKVTMTCRATSSVTYMHWYQLKPGSSPKPWIYATSNLASGVPARFSGSGSGTSYSLTISRVEAEDAATYYCQQWSSNPYTFGGGTKLEIK
B19: TM-44 (antibody, V domains shown)
VH: EVQLVESGGGLVKPGGSLKLSCAASGFTFSDYGMHWVRQAPEKGLEWVAYISSGSSTIYYADTVKGRFTISRDNAKNTLFLQMTSLRSEDTAMYYCARNYGSPYAMDYWGQGTSVTVSS
VL: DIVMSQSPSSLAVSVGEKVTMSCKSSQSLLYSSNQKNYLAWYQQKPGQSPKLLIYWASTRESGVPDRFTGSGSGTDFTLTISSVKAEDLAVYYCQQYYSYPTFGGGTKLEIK
B20: TM-70 (antibody, V domains shown)
VH: EVQLVESGGALVKPGGSLKLSCAASGFTFSNYAMSWVRQTPEKRLEWVATIGYGGSYSYYPDSVKGRFTISRDNAKYTLYLQMSGLRSEDTALYYCARQDSNYEGVWFAYWGQGTLVT
VL: not shown
B21: TM-4 (antibody, V domains shown)
VH: EVQVQQSGPVLVKPGASVKMSCKASGYTFTDYYMNWVKQSHGKNLEWIGVINPYNGGTSYHQKFKGKATLTVDKSSSTAYMELNSLTSEDSAVYYCARAATVVAGFDYWGQGTTLTVSS
VL: QAVVTQESALTTSPGETVTLTCRSSTGAVTTSNYANWVQEKPDHLFTGLIGGTNNRAPGVPARFSGSLIGDKAALTITGAQTEDEAIYFCVLWYSNHLVFGGGTKLTVL

How the values were obtained:
human TMEM106B = human TMEM106B (human, UniProt Q9NUM4 2-274); assay: cell-based or functional assay; note: test concentration or dose not given here
[1] = target: T1, GST-TMEM106B (truncated, comprising amino acids 122-210 of SEQ ID NO:1) (human, UniProt Q9NUM4 122-210); assay: pre-mix epitope binning, antibody immobilized on chip array
T1 construct: GST written first by the name only; also called truncated GST-TMEM106B fusion protein; GST-TMEM106B polypeptide fusion; not shown: GST fusion partner

Binder | % Protection from CPE (human TMEM106B) [%] | binding result [1]
B1 | 97.2 | –
B2 | 96.4 | –
B3 | 3.7 | –
B4 | 3.2 | –
B5 | 89.7 | no binding (tested: 55 nM antigen (2 ug/mL))
B6 | 95.9 | –
B7 | 3.7 | –
B8 | 3.5 | –
B9 | 5.9 | no binding (tested: 55 nM antigen (2 ug/mL))
B10 | 3.5 | –
B11 | 3.9 | –
B12 | 3.8 | –
B13 | 3.7 | –
B14 | 84.2 | no binding (tested: 55 nM antigen (2 ug/mL))
B15 | 49.6 | no binding (tested: 55 nM antigen (2 ug/mL))
B16 | 5.2 | no binding (tested: 55 nM antigen (2 ug/mL))
B17 | 7.7 | no binding (tested: 55 nM antigen (2 ug/mL))
B18 | 4.1 | –
B19 | 3.2 | –
B20 | 3.4 | –
B21 | 3.7 | –

— patent publication US20240166738A1 (Alector, published 2024)
